The record followed here is paper PMC11634027.

In experiment [1] the target is Ds-TM-ICD-ΔD-II:V5 (Drosophila). Nature of the experiment: co-IP; S2 cells co-transfected; lysed in RIPA buffer; V5-tagged Ds construct precipitated with V5-Trap magnetic agarose beads, 1 h; blots with anti-V5 and anti-FLAG (Figs 4E, 5G, 6D,F, 8K).
In experiment [2] the target is Ds-TM-ICD-ΔD-III:V5 (Drosophila). The experiment is described as above.
For experiment [3] the target is unchanged. Nature of the experiment: co-IP; S2 cells co-transfected; lysed in RIPA buffer; results in supplementary figures (S6-S9) or without a figure; which beads (V5-Trap or Fab-Trap) is not told in what was shown.
In experiment [4] the target is Ds-TM-ICD-ΔD-II:V5 (Drosophila). The experiment is described as above.

Substance “FLAG:Lft (Lowfat) (from UniProt Q9VKY1 1-268) (natural protein)” registered a co-precipitation relative to Ds-ICD full length in experiment [1] of 15%.

Take “MyoID:FLAG (from UniProt Q23978 1-1011) (natural protein)”: the co-precipitation relative to control (Ds-ICD:V5) in experiment [2] was 40%; in experiment [1] it was 57%.

“Sple-N:FLAG (from UniProt A1Z6W3 1-349) (domain or fragment)”: the values for the co-precipitation relative to Ds-ICD full length in experiment [3] and in experiment [4] were 35% and 30%, respectively.
